Substitutions are numbered along the chain they refer to.
T1: recombinant hIL-18Rα extracellular domain (human, UniProt Q13478 22-329, biotin label (selection) or fluorescent probe (single-clone FACS), sites not given)
T1 construct: extracellular domain; also called hIL-18Rα ECD; hIL-18Rα-ECD
T1 sequence (looked up): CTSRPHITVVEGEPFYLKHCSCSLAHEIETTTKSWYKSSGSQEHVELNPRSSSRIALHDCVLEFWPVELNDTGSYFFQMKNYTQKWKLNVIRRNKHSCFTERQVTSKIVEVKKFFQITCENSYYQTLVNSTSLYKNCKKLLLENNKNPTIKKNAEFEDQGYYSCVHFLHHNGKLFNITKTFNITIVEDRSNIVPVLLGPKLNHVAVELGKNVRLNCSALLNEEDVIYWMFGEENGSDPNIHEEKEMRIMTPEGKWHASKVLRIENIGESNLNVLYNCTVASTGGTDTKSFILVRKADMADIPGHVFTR

T2: hIL-18Rα ECD-Fc fusion protein (human, UniProt Q13478 22-329)
T2 construct: extracellular domain; captured on Protein A sensor
T2 sequence (looked up): T1 sequence (looked up)

B1: SEQ ID NO 53 (ligand)
chain: YFPKLRSKLSVIRNLNDQVLFIDQGNRPLFEDMTDSDCRDNAPRTIFIISMYKLSGWRGMAVTISVKCEKISTLSCENKIISFKEMNPPDVIKDTKSDIIFFQRSVPGHDNKMQFESSSYEGYFLACEKERDLFKLILKKEDELGDRSIMFTVQNED
B2: SEQ ID NO 42 (ligand)
chain: B1 chain with P3E, L54W, G56P, W57D, R104V
B3: SEQ ID NO 23 (ligand)
chain: B1 chain with R6K, L54G, W57T, V91A
B4: SEQ ID NO 18 (ligand)
chain: B1 chain with F2L, L54W, G56T, W57S, V91S, R104S, N155K
B5: SEQ ID NO 36 (ligand)
chain: B1 chain with L54W, G56R, W57P, V91S, R104Y
B6: SEQ ID NO 19 (ligand)
chain: B1 chain with L54W, G56Y, W57P, V91S, R104S
B7: SEQ ID NO 29 (ligand)
chain: B1 chain with R6T, L54H, G56Y, W57A
B8: SEQ ID NO 60 (ligand)
chain: B1 chain with R6K, L54H, G56S, W57T, R104C
B9: SEQ ID NO 45 (ligand)
chain: B1 chain with L54H, G56Y, W57G, V91A, R104T
B10: SEQ ID NO 6 (ligand)
chain: B1 chain with R6S, L54W, G56P, V91D
B11: SEQ ID NO 57 (ligand)
chain: B1 chain with R6K, L54H, G56R, W57A, V91S, R104T
B12: SEQ ID NO 48 (ligand)
chain: B1 chain with P3F, R6K, L54P, G56P, W57P, V91T, R104Y
B13: SEQ ID NO 25 (ligand)
chain: B1 chain with R6K, W57V, V91T
B14: SEQ ID NO 32 (ligand)
chain: B1 chain with L54H, G56S, W57R, V91I, R104Y
B15: SEQ ID NO 10 (ligand)
chain: B1 chain with P3T, R6K, L54W, G56S, W57D, V91A, R104V
B16: SEQ ID NO 51 (ligand)
chain: B1 chain with L54W, G56A, W57V, V91S, R104S
B17: SEQ ID NO 15 (ligand)
chain: B1 chain with L54S, G56R, W57G, R104T
B18: SEQ ID NO 5 (ligand)
chain: B1 chain with L54H, G56T, W57V
B19: IL-18 variant polypeptide M8 (ligand)
chain: B1 chain with L54W, G56P, W57A, V91A, R104L
B20: SEQ ID NO 30 (ligand)
chain: B1 chain with R6K, L54H, G56I, W57H, R104V
B21: SEQ ID NO 33 (ligand)
chain: B1 chain with P3G, R6K, G56T, W57R, V91P
B22: SEQ ID NO 37 (ligand)
chain: B1 chain with L54G, W57I, V91G
B23: SEQ ID NO 52 (ligand)
chain: B1 chain with P3W, R6K, L54P, G56S, W57H, R104L
B24: SEQ ID NO 46 (ligand)
chain: B1 chain with R6G, L54H, G56D, W57P, R104M
B25: SEQ ID NO 7 (ligand)
chain: B1 chain with R6K, L54H, G56T, W57V
B26: SEQ ID NO 31 (ligand)
chain: B1 chain with R6K, L54W, G56A, W57R, V91P, R104S
B27: SEQ ID NO 47 (ligand)
chain: B1 chain with G56T, W57V, V91G, R104H
B28: SEQ ID NO 40 (ligand)
chain: B1 chain with R6K, W57A
B29: SEQ ID NO 13 (ligand)
chain: B1 chain with L54W, G56K, W57T, R104Y
B30: SEQ ID NO 24 (ligand)
chain: B1 chain with P3D, R6G, L54W, G56P, V91N
B31: IL-18 variant polypeptide M36 (ligand)
chain: B1 chain with R6S, L54A, G56D, W57Q, V91G
B32: SEQ ID NO 34 (ligand)
chain: B1 chain with R6K, L54Q, G56T, V91C
B33: IL-18 variant polypeptide MM1 (ligand)
chain: B1 chain with R6K, G56T, W57Q
B34: SEQ ID NO 16 (ligand)
chain: B1 chain with R6T, L54H, G56T, W57Y, V91A, N155K
B35: SEQ ID NO 20 (ligand)
chain: B1 chain with R6K, L54F, G56T, W57V, V91G, R104H
B36: SEQ ID NO 14 (ligand)
chain: B1 chain with L54Y, G56T, W57A, R104H
B37: IL-18 variant polypeptide M6 (ligand)
chain: B1 chain with L54W, G56T, W57P, R104T
B38: IL-18 variant polypeptide LM1 (ligand)
chain: B1 chain with R6K, L54G, W57A, V91N
notes: soluble, E. coli-made
B39: IL-18 variant polypeptide WM8 (ligand)
chain: B1 chain with L54D, G56Q, W57P, V91S
notes: soluble, E. coli-made
B40: IL-18 variant polypeptide MM5 (ligand)
chain: B1 chain with P3G, R6G, G56T, W57E, V91G, R104S
notes: soluble, E. coli-made
B41: IL-18 variant polypeptide MM4 (ligand)
chain: B1 chain with G56T, W57I, V91G
notes: soluble, E. coli-made
B42: IL-18 variant polypeptide WM6 (ligand)
chain: B1 chain with P3D, R6K, L54D, G56Q, W57P, V91S
notes: soluble, E. coli-made
B43: IL-18 variant polypeptide WM2 (ligand)
chain: B1 chain with L54D, G56Q, W57P, V91N, K96E
notes: soluble, E. coli-made
B44: IL-18 variant polypeptide LM2 (ligand)
chain: B1 chain with W57S
notes: soluble, E. coli-made
B45: IL-18 variant polypeptide WM10 (ligand)
chain: B1 chain with R6K, L54D, G56Q, W57P, V91S
notes: soluble, E. coli-made
B46: IL-18 variant polypeptide LM3 (ligand)
chain: B1 chain with V11I, L54G, W57A, V91G
notes: soluble, E. coli-made
B47: IL-18 variant polypeptide LM4 (ligand)
chain: B1 chain with R6K, L54H, G56Y, W57S, V91N
notes: soluble, E. coli-made
B48: IL-18 variant polypeptide LM5 (ligand)
chain: B1 chain with P3G, L54W, G56S, W57Q, V91N
notes: soluble, E. coli-made

target: T1, recombinant hIL-18Rα extracellular …; assay: single-clone FACS, yeast display, 10 nM labelled hIL-18Rα ECD
Experimental: Following the screens described in Example 2, single clone FACS analysis was performed to verify the binding of selected yeast cell surface-expressed IL-18 variant polypeptides from Round 4 and Round 5 to 10 nM hIL-18Rα-ECD. Briefly, each yeast clone at the same density was incubated with 10 nM IL-18Rα-ECD labeled by fluorescent probe, respectively, followed by washing step. Then the ratio of fluorescent positive IL-18Rα ECD binding yeasts in the population of each clone were analyzed.

Row | Binder | % of fluorescence positive cells [%]
1 | B1 | 82.4
2 | B2 | 87.2
3 | B3 | 90.8
4 | B4 | 92
5 | B5 | 88.5
6 | B6 | 97.9
7 | B7 | 89.7
8 | B8 | 76.5
9 | B9 | 86.1
10 | B10 | 95.5
11 | B11 | 79
12 | B12 | 83.8
13 | B13 | 90
14 | B14 | 88.9
15 | B15 | 94.8
16 | B16 | 83.1
17 | B17 | 93
18 | B18 | 95.6
19 | B19 | 73.4

Row | Binder | % of fluorescence positive cells [%]
20 | B20 | 89.7
21 | B21 | 88.8
22 | B22 | 88.4
23 | B23 | 83
24 | B24 | 84.9
25 | B25 | 95.5
26 | B26 | 89.5
27 | B27 | 84.7
28 | B28 | 87.9
29 | B29 | 93.2
30 | B30 | 90.1
31 | B31 | 14.8
32 | B32 | 88.6
33 | B33 | 91.6
34 | B34 | 93
35 | B35 | 91.7
36 | B36 | 93.2
37 | B37 | 79

target: T2, hIL-18Rα ECD-Fc fusion protein; assay: BLI (Octet RED96), hIL-18Rα ECD-Fc on Protein A sensor
Experimental: The affinities of IL-18 variant polypeptides for hIL-18Rα were assessed by Biolayer Interferometry (BLI) on Octet RED96 using Protein A sensor coated with hIL-18Rα ECD-Fc fusion protein, and WT hIL-18 was used as a control.

Row | Binder | Kd [nM] | Response (nm) | koff [s⁻¹] | kon [M⁻¹ s⁻¹]
38 | B38 | 86.2 | 0.0618 | 0.047 | 545000
39 | B39 | – | < 0.02 | – | –
40 | B40 | 104 | 0.0326 | 0.077 | 743000
41 | B41 | 9.82 | 0.0238 | 0.0375 | 3.82e+06
42 | B42 | 10.1 | 0.304 | 0.00199 | 196000
43 | B43 | – | < 0.02 | – | –
44 | B44 | 37.9 | 0.0338 | 0.052 | 1.37e+06
45 | B45 | 12.9 | < 0.02 | 0.007 | 543000
46 | B46 | 14.6 | 0.0422 | 0.0328 | 2.24e+06
47 | B47 | 4.17 | 0.0262 | 0.0169 | 4.06e+06
48 | B48 | 19.6 | 0.038 | 0.0411 | 2.1e+06

— patent US20260092093A1 (TJ BIOPHARMA SHANGHAI, published 2026)
